Test results: US20260258397A1, “REAGENTS AND SYSTEMS FOR […]” (priority 2023, published 2026)

Biological target: ΔN-HAB1 (HAB1 Δ1-178), recombinant (Arabidopsis) (UniProt Q9CAJ0)
Assay: cell-based or functional assay

ΔN-HAB1 (HAB1 Δ1-178), recombinant (Arabidopsis), sequence (Q9CAJ0 179-511, stated change not applied): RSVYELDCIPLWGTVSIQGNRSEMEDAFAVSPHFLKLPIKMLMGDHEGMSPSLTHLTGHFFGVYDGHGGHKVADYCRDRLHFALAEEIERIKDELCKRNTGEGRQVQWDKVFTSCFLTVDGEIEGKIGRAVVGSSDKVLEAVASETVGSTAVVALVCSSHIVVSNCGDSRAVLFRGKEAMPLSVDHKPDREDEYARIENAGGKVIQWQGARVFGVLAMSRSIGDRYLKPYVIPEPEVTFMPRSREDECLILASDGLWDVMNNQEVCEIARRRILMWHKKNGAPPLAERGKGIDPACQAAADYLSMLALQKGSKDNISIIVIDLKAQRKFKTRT

B1: 6xHis-PYR1^WIN, recombinant (designed binder, not shown: small tags and cut ends)
chain: MPSELTPEERSELKNSIAEFHTYQLDPGSCSSLHAQRIHAPPELVWSIVRRFDKPQTYQHFIKSCSVEQNFEMRVGCTRDVIVISGLPANTSTERLDILDDERRVTGFSIIGGEHRLTNYKSVTTVHRFEKENRIWTVVLESYVVDMPEGNSEDDTRMAIDTVVKLNLQKLATVAEAMARNSGDGSGSQVT
  EC50 for HAB1 inhibition (in vitro phosphatase activity, fluorogenic substrate; the ligand WIN 55,212-2 is titrated, 50 nM receptor, 25 nM ΔN-HAB1): 72 nM

B2: PYR1^PIRI, recombinant (designed binder)
chain: MPSELTPEERSELKNSIAEFHTYQLDPGSCSSLHAQRIHAPPELVWSIVRRFDKPQTYRHFIKSCSVEQNFEMRVGCTRDVIVISGLPANTMTERLDILDDERRVTGFSIIGGEHRLTSYKQVTTVHRFGKENRIWTVVLESYVVDMPEGNSEDDTRMTTDTVVKLNLQKLATAAEAMARNSGDGSGSQVT
  EC50 of receptor-mediated inhibition of HAB1 phosphatase activity in vitro (ligand pirimiphos-methyl titrated): 58 nM

B3: PYR1^DIAZI, recombinant (designed binder)
chain: MPSELTPGERSELKNSIAEFHTYQLDPGSCSSLHAQRIHAPPELVWSIVRRFDKPQTYKHFIKSCSVEQNFEMRVGCTRDYIVISGMPANTSTERLDILDDERRVTGYSIIGGEHRLTNYKSVTTVHRFEKENRIWTVVLESYVVDMPEGNSEDDTRVGVDTVVKLNLQKLATVAEAMARNSGDGSGSQVT
  EC50 of receptor-mediated inhibition of HAB1 phosphatase activity in vitro (ligand diazinon titrated): 36 nM

B4: 6xHis-PYR1^4F, recombinant (designed binder, not shown: small tags and cut ends)
chain: MPSELTPEERSELKNSIAEFHTYQLDPGSCSSLHAQRIHAPPELVWSIVRRFDKPQTYKHFIKSCSVEQNFEMRVGCTRDVIVISGLPANTSTERLDILDDERRVTGFSIIGGEQRLTNGKSVTTVHRFEKENRIWTVVLESYVVDMPEGNSEDDTRMVGDTVVKLNLQKLATVAEAMARNSGDGSGSQVT
  EC50 for HAB1 inhibition (in vitro phosphatase activity, fluorogenic substrate; the ligand 4F-MDMB-BUTINACA is titrated, 25 nM receptor, 25 nM ΔN-HAB1): 102 nM
